Square brackets hold non-standard residues; d marks the D form.
Experiments:
[1] = target: T1, NT receptor NTSR1 (high affinity NTSR1 receptor) on HT29 cells (human (HT29 is stated to be a human …, UniProt P30989 1-418)); experiment: competitive displacement of [3H]-NT from HT29 cells expressing NTSR1
T1 construct: whole, on cells; Endogenous receptor on HT29 cells

[2] = target: T1, NT receptor NTSR1 (high affinity NTSR1 …); experiment: as above; remark: listed apart in the source

T1 sequence (P30989 whole entry): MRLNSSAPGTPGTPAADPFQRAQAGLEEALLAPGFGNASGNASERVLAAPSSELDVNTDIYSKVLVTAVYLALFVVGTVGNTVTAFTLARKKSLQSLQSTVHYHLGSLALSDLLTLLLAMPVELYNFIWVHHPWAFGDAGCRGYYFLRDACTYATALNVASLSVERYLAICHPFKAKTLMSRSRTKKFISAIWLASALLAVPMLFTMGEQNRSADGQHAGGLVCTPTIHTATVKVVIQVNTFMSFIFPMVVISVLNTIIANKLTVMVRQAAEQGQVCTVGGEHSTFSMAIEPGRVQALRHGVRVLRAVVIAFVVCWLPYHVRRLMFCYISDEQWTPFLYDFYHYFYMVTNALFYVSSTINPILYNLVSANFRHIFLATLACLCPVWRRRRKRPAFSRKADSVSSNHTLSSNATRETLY

B1: Ac-Lys-[D-Tyr^11]NT(8-13) (peptide)
peptide: Ac-KRRP[dY]IL-OH
SMILES: CC[C@H](C)[C@H](NC(=O)[C@@H](Cc1ccc(O)cc1)NC(=O)[C@@H]1CCCN1C(=O)[C@H](CCCNC(=N)N)NC(=O)[C@H](CCCNC(=N)N)NC(=O)[C@H](CCCCN)NC(C)=O)C(=O)N[C@@H](CC(C)C)C(=O)O
notes: also called AcLysNT(8-13)D-tyr11; AcLysNT(8-13)(D-Tyr11)
[1]
  fold weaker binding than native NT: > 1000 fold
[2]
  IC50: 5.39 µM

From patent publication US20160263235A1 (ANGIOCHEM, published 2016)
